Data taken from PMC2919377, “A Nuclear Family A DNA Polymerase from Entamoeba histolytica Bypasses Thymine Glycol” (PLoS Neglected Tropical Diseases, 2010).

Legend:
Assay in all cases: purified protein
Assay type in all cases: biochemical, Entamoeba histolytica
Details in all cases: opposite cognate template base, primer-template DNA, optimised buffer (Mg2+ optimum 2.5 mM, pH optimum 7.5), 37 °C
[1] = substrate: Nc1ccn([C@H]2C[C@H](O)[C@@H](COP(=O)(O)OP(=O)(O)OP(=O)(O)O)O2)c(=O)n1
[2] = substrate: Nc1ncnc2c1ncn2[C@H]1C[C@H](O)[C@@H](COP(=O)(O)OP(=O)(O)OP(=O)(O)O)O1
[3] = substrate: Nc1nc2c(ncn2[C@H]2C[C@H](O)[C@@H](COP(=O)(O)OP(=O)(O)OP(=O)(O)O)O2)c(=O)[nH]1
[4] = substrate: Cc1cn([C@H]2C[C@H](O)[C@@H](COP(=O)(O)OP(=O)(O)OP(=O)(O)O)O2)c(=O)[nH]c1=O

B1: EhDNApolA (Entamoeba histolytica HM-1:IMSS) (protein)
chain: MEKTPRNSVDDLLMLFEDVKDNNKPVDYTKLESEETKKTENKERRKSLSINVNDEIPEKRKRKSIKQEGTPQPKVGAVFEIQYQHLPNKIDISELKELLEKIPKMEGKIMFNEKNLEQSIVINCTNNGIHALIGNSYVVLKKELLPEIINSRRLIIVYNLMEEIKNYRNNIKCILENFNTNNTIFDTYIGASTIDPGSVDGKTFSQICLVYEVIINKSTIEERLKQTRRLAVKEVEVMNNDNMIKVFQEQEMIIDGVLIEMNYCNEFKIDNKLLNEQRKKLIEEQHKIEMETKKIIGRTINLSSPEQVKKELIRFNIGIDGIKKKATTDKKILSQSDHPFAKLVLEYRKISKLLSGVIEQIRKCCIKSGDEYFIRTTWSQTAIVTGRIQSKSPNLQQIPKQSFSLPQCLIIPRDLFITHNNNTFVAIDYNQIELRILADFTKDHHLIEFFKSNTDVHRLIAAHWLKKNVNDITDDERRKAKTIVYGCIYGIGPFSLADQLHVSLDESKAFLESFLDQFPAFKKWKEETITNASTTGFVHTINNRRRRINNLTDCNDKKTVAESKRIAVNSPIQGTAADIIKMCMIEIFKKLHSSWVGVQLLLNIHDEIVLEVPDHLLDEVCVTLKHLMEHIVKLEVPLVVTVETGKKWGSLHPYNLN
notes: full-length ORF, 657 aa, about 75 kDa, N-terminal 6-His tag (pCOLD I), expressed in E. coli BL21 DE3-Rosetta II; Ni-NTA and phosphocellulose
- Km [1]: 2.1 ± 0.3 µM
- Vmax [1]: 0.0032 µmol/min
- Km [2]: 2.3 ± 0.2 µM
- Vmax [2]: 0.0033 µmol/min
- Km [3]: 1.56 ± 0.2 µM
- Vmax [3]: 0.0035 µmol/min
- Km [4]: 1.49 ± 0.3 µM
- Vmax [4]: 0.0029 µmol/min
